# From US20250115676A1
# Substitutions are numbered along the chain they refer to.
# B1: hMAB-A (2C.2) (antibody, V domains shown)
# VH: EVQLVESGGGLVKPGGSLRLSCAASGFTFSSYWMHWVRQAPGKGLEWVGEIIPIFGHTNYNEKFKSRFTISLDNSKNTLYLQMGSLRAEDTAVYYCARGGYYYYPRFGWLDYWGQGTTVTVSS
# VL: DIVMTQSPDSLAVSLGERATISCKASQSVDYSGDSYMNWYQQKPGQPPKLLIYAASDLESGIPARFSGSGSGTDFTLTISSLEPEDFATYYCQQSHEDPFTFGQGTKLEIK
# B2: hMAB-A (2D.2) (antibody, V domains shown)
# VH: B1 VH with P105T, R106G, F107K, W109V
# VL: B1 VL
# B3: hMAB-A (2B.2) (antibody, V domains shown)
# VH: B1 VH with P105I, R106G, F107K, W109V
# VL: B1 VL
# B4: hMAB-A (2I.2) (antibody, V domains shown)
# VH: B1 VH with F107Q, W109F
# VL: B1 VL
# B5: hMAB-A (2.2) (antibody, V domains shown)
# VH: B1 VH with P105G, R106S, F107R, G108D, W109Y, L110F
# VL: B1 VL
# B6: hMAB-A (2.3) (antibody, V domains shown)
# VH: B1 VH with P105G, R106S, F107R, G108D, W109Y, L110F
# VL: B1 VL with K24R
# B7: hMAB-A (3.3) (antibody, V domains shown)
# VH: B1 VH with K63R, K65Q, S66G, P105G, R106S, F107R, G108D, W109Y, L110F
# VL: B1 VL with K24R
# B8: hMAB-A (4.4) (antibody, V domains shown)
# VH: B1 VH with M34I, K63R, K65Q, S66G, P105G, R106S, F107R, G108D, W109Y, L110F
# VL: B1 VL with K24R, M37L, H96Y, E97S, D98T
# B9: hMAB-A (1.1) (antibody, V domains shown)
# VH: B1 VH with F55N, P105G, R106S, F107R, G108D, W109Y, L110F
# VL: B1 VL with S32D
# B10: chMAB-A (antibody, V domains shown)
# VH: QVQLQQPGAELVKPGASVKLSCKASGYTFTSYWMHWVKQRPGQGLEWIGEIIPINGHTNYNEKFKSKATLTLDKSSSTAYMQLSSLASEDSAVYYCARGGYYYYGSRDYFDYWGQGTTLTVSS
# VL: DIVLTQSPASLAVSLGQRATISCKASQSVDYDGDSYMNWYQQIPGQPPKLLIYAASDLESGIPARFSGSGSGTDFTLNIHPVEEEDAATYYCQQSHEDPFTFGGGTKLEIK
# Target: shADAM9-His (His-tagged soluble human ADAM9) (human) (UniProt Q13443)
# Test: BIACORE SPR; antibody captured, huADAM9-His as analyte
Binder,Kd [nM],koff [s⁻¹],kon [M⁻¹ s⁻¹]
B1,1.4,0.00081,590000
B2,0.8,0.00058,690000
B3,0.6,0.00039,610000
B4,0.4,0.00023,660000
B5,0.6,0.00055,900000

# Target: shADAM9-His (His-tagged soluble human ADAM9) (human) (UniProt Q13443)
# Test: binding affinity study (BIACORE, Table 7); reference not named
row,Binder,fold increase in affinity [fold]
1,B6,2
2,B5,2
3,B7,2

# Target: shADAM9-His (His-tagged soluble human ADAM9) (human) (UniProt Q13443)
# Test: BIACORE SPR; antibody captured on Fab2 goat anti-human Fc surface, shADAM9-His 6.25-100 nM as analyte; 1:1 Langmuir
row,Binder,Kd [nM]
1,B6,1.3
2,B8,2
3,B9,3.5
4,B5,1.4
5,B7,1.4
6,B10,3.6
